We go through 17 molecules from patent publication US20160194355A1 (MARUHA NICHIRO, published 2016).

In this assay the target is dipeptidyl peptidase-IV (DPPIV) (Human, recombinant; manufactured by Biomol) (Human, UniProt P27487 39-766, limits assumed). Nature of the assay: cell-based or functional assay.
dipeptidyl peptidase-IV (DPPIV) (Human, recombinant; manufactured by Biomol), sequence (P27487 39-766 limits assumed): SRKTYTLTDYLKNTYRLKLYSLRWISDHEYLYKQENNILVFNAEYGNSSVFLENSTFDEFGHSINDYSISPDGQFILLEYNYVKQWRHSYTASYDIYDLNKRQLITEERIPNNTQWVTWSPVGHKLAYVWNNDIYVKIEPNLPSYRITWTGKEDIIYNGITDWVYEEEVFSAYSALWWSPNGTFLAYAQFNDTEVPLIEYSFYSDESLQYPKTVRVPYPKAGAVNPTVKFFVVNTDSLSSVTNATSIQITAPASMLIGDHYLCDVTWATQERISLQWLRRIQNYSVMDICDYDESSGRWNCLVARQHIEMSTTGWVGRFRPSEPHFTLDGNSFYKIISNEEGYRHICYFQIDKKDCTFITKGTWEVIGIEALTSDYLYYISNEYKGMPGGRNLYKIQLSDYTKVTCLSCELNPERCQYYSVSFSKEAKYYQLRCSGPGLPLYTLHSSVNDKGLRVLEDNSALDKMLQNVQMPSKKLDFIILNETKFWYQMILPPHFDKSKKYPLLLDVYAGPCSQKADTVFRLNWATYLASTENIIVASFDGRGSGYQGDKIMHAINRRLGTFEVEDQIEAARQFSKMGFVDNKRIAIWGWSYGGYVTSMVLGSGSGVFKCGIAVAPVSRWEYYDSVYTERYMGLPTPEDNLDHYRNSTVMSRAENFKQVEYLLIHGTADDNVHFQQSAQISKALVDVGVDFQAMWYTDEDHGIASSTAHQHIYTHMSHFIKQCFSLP

B1: Val-Ile-Pro (VIP) (peptide)
peptide: VIP
With B1, the “IC50 Value (µM), DPPIV inhibitory activity (enzyme activity on H-Gly-Pro-AMC substrate, fluorescence)” value was greater than 100 µM.

B2: Leu-Pro (LP) (peptide)
peptide: LP
Turning to B2, the “IC50 Value (µM), DPPIV inhibitory activity (enzyme activity on H-Gly-Pro-AMC substrate, fluorescence)” value was greater than 100 µM.

B3: Leu-Pro-Val-Leu (LPVL) (peptide)
peptide: LPVL
On to B3, for which the “IC50 Value (µM), DPPIV inhibitory activity (enzyme activity on H-Gly-Pro-AMC substrate, fluorescence)” value worked out at 46 µM.

B4: Val-Pro-Leu (VPL) (peptide)
peptide: VPL
In the case of B4, the “IC50 Value (µM), DPPIV inhibitory activity (enzyme activity on H-Gly-Pro-AMC substrate, fluorescence)” value came out at 19 µM.

B5: Val-Leu-Pro (VLP) (peptide)
peptide: VLP
Turning to B5, the “IC50 Value (µM), DPPIV inhibitory activity (enzyme activity on H-Gly-Pro-AMC substrate, fluorescence)” value is greater than 100 µM.

B6: Trp-Ile-Pro (WIP) (peptide)
peptide: WIP
Take B6: the “IC50 Value (µM), DPPIV inhibitory activity (enzyme activity on H-Gly-Pro-AMC substrate, fluorescence)” value is greater than 100 µM.

B7: Leu-Pro-Phe (LPF) (peptide)
peptide: LPF
With B7, the “IC50 Value (µM), DPPIV inhibitory activity (enzyme activity on H-Gly-Pro-AMC substrate, fluorescence)” value was 88 µM.

B8: Val-Pro-Ile (VPI) (peptide)
peptide: VPI
For B8, the “IC50 Value (µM), DPPIV inhibitory activity (enzyme activity on H-Gly-Pro-AMC substrate, fluorescence)” value stood at 3 µM.

B9: Ile-Ile-Pro (IIP) (peptide)
peptide: IIP
B9: the “IC50 Value (µM), DPPIV inhibitory activity (enzyme activity on H-Gly-Pro-AMC substrate, fluorescence)” value was greater than 100 µM.

B10: Ile-Pro-Leu (IPL) (peptide)
peptide: IPL
As to B10, the “IC50 Value (µM), DPPIV inhibitory activity (enzyme activity on H-Gly-Pro-AMC substrate, fluorescence)” value worked out at 26 µM.

B11: Ile-Pro (IP) (peptide)
peptide: IP
Turning to B11, the “IC50 Value (µM), DPPIV inhibitory activity (enzyme activity on H-Gly-Pro-AMC substrate, fluorescence)” value came to 66 µM.

B12: Phe-Pro-Val-Gly (FPVG) (peptide)
peptide: FPVG
For B12, the “IC50 Value (µM), DPPIV inhibitory activity (enzyme activity on H-Gly-Pro-AMC substrate, fluorescence)” value turned out to be 40 µM.

B13: Ile-Pro-Ile (IPI) (peptide)
peptide: IPI
As to B13, the “IC50 Value (µM), DPPIV inhibitory activity (enzyme activity on H-Gly-Pro-AMC substrate, fluorescence)” value stood at 3 µM.

B14: Phe-Pro (FP) (peptide)
peptide: FP
In the case of B14, the “IC50 Value (µM), DPPIV inhibitory activity (enzyme activity on H-Gly-Pro-AMC substrate, fluorescence)” value is greater than 100 µM.

B15: Ile-Val-Pro (IVP) (peptide)
peptide: IVP
Consider B15, for which the “IC50 Value (µM), DPPIV inhibitory activity (enzyme activity on H-Gly-Pro-AMC substrate, fluorescence)” value is greater than 100 µM.

B16: Leu-Pro-Leu (LPL) (peptide)
peptide: LPL
For B16, the “IC50 Value (µM), DPPIV inhibitory activity (enzyme activity on H-Gly-Pro-AMC substrate, fluorescence)” value worked out at 82 µM.

B17: Trp-Leu-Pro (WLP) (peptide)
peptide: WLP
For the molecule B17, the “IC50 Value (µM), DPPIV inhibitory activity (enzyme activity on H-Gly-Pro-AMC substrate, fluorescence)” value is greater than 100 µM.
